Experimental data published in the supplement of paper PMC9170038.

Tested on: MS2 coat protein
Experiment: apparent KD of MS2 coat protein; designed switch direction (-1 OFF switch, 1 ON switch): -1; higher = weaker reporter binding
In short: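 Apparent KD, taken as the median over clusters for each design, was obtained by curve-fitting normalised cluster fluorescence. Designed RNA switches had been transcribed on Illumina chips by stalled E. coli RNA polymerase and titrated with SNAP-549-labelled MS2 coat protein, doubling from 0.7 or 1.5 nM to 3 µM.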

[1] = input ligand: microRNA oligo, concentration not stated
[2] = Eterna round: R95, input ligand: microRNA oligo, concentration not stated
[3] = Eterna round: R95, input ligand: FMN 200 uM
[4] = Eterna round: R95, input ligand: none

Row | Sequence | apparent KD of MS2 coat protein (input ligand: FMN 200 uM) [nM] | apparent KD of MS2 coat protein (input ligand: none) [nM] | further results
1 | AUUUAAUUUAAUAAGAUCACAUGAGGAUCACCCAUGUUAUAAUAGGAUAUCAGCUCGAUUAGAGCUGAGAAGGAUUAUAACAUG [ExNG3/9-A1] (Eterna round: R96, puzzle: Exclusion NG 3) | 35.3 | 28.8 | apparent KD of MS2 coat protein [1]: 20.1 nM
2 | UAUUAGUAAGGAUAUGAGCCGUAGGACGAAAGUCCUACGGCUCAGAAGGUACAUGAGGAUCACCCAUGUUUAUU [Mod of Fisker 6 - Jieux - Exclusion 4] (Eterna round: R97, puzzle: Exclusion 4) | 22.5 | 15.9 | 
3 | ACUUAUUGAGGAUAUACAGAUUAUUACAUGAGGAUCACCCAUGUUCUUCAAUGUAUAUAUGUAGAAGGCAGAGGAA [JL-ex5-4.24 Malcolm mod] (Eterna round: R97, puzzle: Exclusion 5) | 87.6 | 39.7 | 
4 | UUUGAUUAAGUGAGGAUAUACUGUUUGUAUUGAUUGUAGAAGGUACAUGAGGAUCACCCAUGUUUAGUAUUUAU [JR_BME4_Sub037] (puzzle: Brourd's mod of Exclusion 4) |  |  | apparent KD of MS2 coat protein [2]: 19.2 nM
5 | AUGAACAAUGUAGGAUAUGCGUGGCGAAGCUAUGCAGAAGGACAUGAGGAUCACCCAUGUUCAAGCGUCUGCGUACAGAUGCUA [JL eng1 1.35 mod 7] (Eterna round: R96, puzzle: Exclusion NG 1) | 26.9 | 13.8 | apparent KD of MS2 coat protein [1]: 10.3 nM
6 | ACAAGCUUUUUGCUCGGGUACAUGAGGAUCACCCAUGUUUGGGUUUAUUGAGGUUGUGUGGGCGUGCGCUGCAGGUU [JR_SV3TOV1_Sub075] (puzzle: Sensor v3, turn-off variant 1) |  |  | apparent KD of MS2 coat protein [3]: 87.7 nM; apparent KD of MS2 coat protein [2]: 243 nM; apparent KD of MS2 coat protein [4]: 118 nM
7 | GGAUCACAUGUGAGGAUAUGCAGGUCCUUGGAUCUGCAGAAGGCACAUGAGGAUCACCCAUGUGAUCAAGAUCC [Mat - Exclusion 4 - Eli Mod - D49] (Eterna round: R97, puzzle: Brourd's mod of Exclusion 4) | 47.4 | 61.2 | 
8 | AGUCGAAAGAACCACAUGGACAUGAGGAUCACCCAUGUGCAAGCCUUUUUCUCGUCACUAUCGUCAAAAGACGAUAG [Omei Mir Offv1 A5] (Eterna round: R97, puzzle: Sensor, turn-off variant 1) | 168 | 227 | 
9 | CAUGAUCUUCGGAAAAUGUACAUGAGGAUCACCCAUGUGACGAGUUACAUGAAAAACAAGCUUUUUGCUCGUCUUAU [Sensor v3 - Turn-off variant 1 - 10] (puzzle: Sensor v3, turn-off variant 1) |  |  | apparent KD of MS2 coat protein [3]: 411 nM; apparent KD of MS2 coat protein [2]: 288 nM; apparent KD of MS2 coat protein [4]: 623 nM
10 | UGCCCGGUUAGAGGAUAUCUACUGUGACUGGGUUUUCCAAAACAUGAGGAUCACCCAUGUGACGGAGAGAAGGCUAGCCUUAAA [Anedanage] (Eterna round: R96, puzzle: Exclusion NG 2) | 26.8 | 40.1 | apparent KD of MS2 coat protein [1]: 31.1 nM
11 | CAGUACUGAGGAUAUACAUGAGGAUCACCCAUGUGUGUGAGAAAAUUAAUAAAAGAAUGUAGAAGGCGGUGCUG [JR_Ex3_Sub041] (Eterna round: R97, puzzle: Exclusion 3) | 645 | 357 | 
12 | GAUUAACAUGAGGAUCACCCAUGUGAGGAUAUGAACUUGCCCACUUACCCUUUAGAGUUUAGAAGGCGCAUUCU [1986#33] (Eterna round: R97, puzzle: Exclusion 1) | 22.4 | 28.2 | 
13 | UGUAAGCUAGGAUAUGCUUUGGGAAAGCAUUCCUUCGAUAAACUUGAGGAUCACCCAAGUAGAAGGAGCUUACC [salish99_ex2_r4_008] (Eterna round: R97, puzzle: Exclusion 2) | 12.7 | 10.9 | 
14 | GGCGCACAUGAGGAUCACCCAUGUGAGGAUAUGUGGCGAUCGUCGAUAGACGAUAGCCACAGAAGGCACAUGCC [Mat - Exclusion 1 - Eli Mod - D20] (Eterna round: R97, puzzle: Exclusion 1) | 74 | 33.3 | 
15 | AAUAACAGAGGAUAUACUAUUUUAUGUAUUUAUUAUUUUAAACAUGAGGAUCACCCAUGUAGAAGGCUGAGUAA [JMF 27] (puzzle: Exclusion 2) |  |  | apparent KD of MS2 coat protein [2]: 22.2 nM
16 | CAUUUCAGUCGGAGAUCCAACAUGAGGAUCACCCAUGUCUCUAAAGCUUUUUGCUCGUCUUAUCCUCCUUUGUUCAC [JR_STOV1_Sub098] (Eterna round: R97, puzzle: Sensor, turn-off variant 1) | 458 | 299 | 
17 | GCCCGGGCAGGAUAUACGUGGCCCGGGUAACCGGGCCUCAGACAUGAGGAUCACCCAUGUAGAAGGGCCCGGGC [-44, -43.8 kcal, A 22%] (Eterna round: R97, puzzle: Exclusion 2) | 18.1 | 18.3 | 
18 | GUUUACAAGCUAAGAUCCUACAUGAGGAUCACCCAUGUGGUCCGGUGACGUGAGUCACCGGACUUAGCUCGUCUUGA [salish99_S_TOV1_R5_092] (Eterna round: R97, puzzle: Sensor, turn-off variant 1) | 32.4 | 31 | 
19 | ACUGGUCGAGGAUAUACAUGAGGAUCACCCAUGUGAUCAGCAGUCCUCGGACUGCAAUGUAGAAGGCGACCAGU [E3/1-A2] (Eterna round: R97, puzzle: Exclusion 3) | 143 | 356 | 
20 | GAAAACCAAGGAUAUACAUGAGGAUCACCCAUGUAGGUUGGGACGCCAUAAAGGCGAUGUAGAAGGUGGGAAAA [Inansoge] (puzzle: Exclusion 3) |  |  | apparent KD of MS2 coat protein [2]: 21.6 nM
21 | AUAAUGUGAGGAUAUCAGUCGACUAGCUUCGGCUAGUCGACUGAGAAGGUACAUGAGGAUCACCCAUGUGGUUC [E4/11-B1] (Eterna round: R97, puzzle: Exclusion 4) | 885 | 456 | 
22 | UUUCGUGCGCGGGUUUUUUACAUGAGGAUCACCCAUGUCCUCUGCUUGUCUUGUCUUGGGCUUUUUUUGGGUUCGGG [-19.7, -39 kcal, A 8%] (Eterna round: R97, puzzle: Sensor, turn-off variant 1) | 771 | 868 | 
23 | AGUUUACAUGAGGAUCACCCAUGUGAGGAUAUGGAUUCGCUGGCCGUAGCCAGUGGAUCCAGAAGGCGCAUGAU [JL-ex1-4.13] (Eterna round: R97, puzzle: Exclusion 1) | 401 | 86.3 | 
24 | ACAAGCUUAAUCUGUAUGAACAUGAGGAUCACCCAUGUAUAAGGGAAUUCUUUUGGGUUUUUUAUUGCUCGUCUUAU [JR_STOV1_Sub021] (Eterna round: R97, puzzle: Sensor, turn-off variant 1) | 317 | 311 | 
25 | GUGUGCAGAGGAUAUACAUAGGAAUAUAAUAUAAUAUAAUUACAUGAGGAUCACCCAUGUAGAAGGCUGAGUGU [Excluse me!! 18 - Jieux - Exclusion 2] (puzzle: Exclusion 2) |  |  | apparent KD of MS2 coat protein [2]: 24.3 nM
26 | AAGCAGCGAGGAUAUGCUUGAGCGUGUCCUAGUUGAAAUAAACUUGAGGAUCACCCAAGUAGAAGGCGCAGCCC [Rivezaed] (Eterna round: R97, puzzle: Exclusion 2) | 135 | 49.1 | 
